Test results: US7910330

Target: native Pf AMA-1 on P. falciparum parasites (strain not specified) (Plasmodium falciparum)
Test: cell-based or functional assay

- inhibition of invasion: 50 to 60%
Substance: rat monoclonal antibody 4G2
